Measured values taken from US20200291135A1 (INSPIRNA, published 2020).

Legend:
[1] = molecular target: T1, human MERTK expressed on cells (SKMEL5 melanoma cells; in vitro differentiated M2 macrophages) (human, UniProt Q12866 21-999); assay: flow cytometry, APC-labeled z10 on MERTK-expressing SKMEL5 melanoma cells
T1 construct: Endogenous MERTK of human cells; also called surface MERTK
T1 sequence: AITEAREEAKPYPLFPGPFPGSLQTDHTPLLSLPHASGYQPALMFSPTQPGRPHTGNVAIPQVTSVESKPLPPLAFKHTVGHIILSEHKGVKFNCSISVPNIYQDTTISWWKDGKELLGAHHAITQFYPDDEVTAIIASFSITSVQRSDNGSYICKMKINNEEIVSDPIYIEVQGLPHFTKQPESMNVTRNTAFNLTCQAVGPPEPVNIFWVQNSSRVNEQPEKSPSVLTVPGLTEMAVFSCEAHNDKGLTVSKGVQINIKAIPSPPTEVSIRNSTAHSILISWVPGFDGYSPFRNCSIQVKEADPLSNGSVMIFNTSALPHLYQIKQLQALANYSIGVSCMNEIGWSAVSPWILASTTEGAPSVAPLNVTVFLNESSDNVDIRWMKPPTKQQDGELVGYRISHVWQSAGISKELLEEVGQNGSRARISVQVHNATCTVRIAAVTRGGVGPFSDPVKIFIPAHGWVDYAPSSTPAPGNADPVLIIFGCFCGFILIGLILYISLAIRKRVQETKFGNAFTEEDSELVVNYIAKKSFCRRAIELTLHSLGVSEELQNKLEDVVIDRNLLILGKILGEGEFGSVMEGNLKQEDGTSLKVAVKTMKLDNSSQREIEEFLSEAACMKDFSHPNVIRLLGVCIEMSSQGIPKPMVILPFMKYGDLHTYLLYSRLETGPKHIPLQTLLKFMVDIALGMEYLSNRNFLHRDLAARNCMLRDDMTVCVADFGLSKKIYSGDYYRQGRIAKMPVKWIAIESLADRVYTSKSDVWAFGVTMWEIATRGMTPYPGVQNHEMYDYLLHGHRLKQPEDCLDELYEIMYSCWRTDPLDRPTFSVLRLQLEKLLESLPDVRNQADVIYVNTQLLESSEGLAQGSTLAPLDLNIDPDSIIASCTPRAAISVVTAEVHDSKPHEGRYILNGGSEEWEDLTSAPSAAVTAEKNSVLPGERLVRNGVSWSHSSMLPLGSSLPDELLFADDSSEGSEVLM
Description: SKMEL5 cells were harvested with trypsin, washed twice with PBS and strained through a 70 µm filter. 50,000 cells were resuspended in 60 μL FACS buffer (2% BSA, 10 mM EDTA, 25 mM HEPES, 0.1% sodium azide in Ca/Mg-free PBS) containing 10% human AB serum (Sigma, H4522). […] The APC signals from live single cells were analyzed in FlowJo and the MFIs were plotted with GraphPad Prism. Single color control samples were used to create a compensation matrix.

[2] = molecular target: T2, murine MERTK extracellular domain conjugated to an IgG Fc domain (murine, UniProt Q60805 19-497); assay: competition ELISA: soluble mMer-Fc (varied) equilibrated with z10, free z10 caught on plate-coated hMER
T2 construct: extracellular domain; also called mMER; not shown: IgG Fc domain
T2 sequence (looked up): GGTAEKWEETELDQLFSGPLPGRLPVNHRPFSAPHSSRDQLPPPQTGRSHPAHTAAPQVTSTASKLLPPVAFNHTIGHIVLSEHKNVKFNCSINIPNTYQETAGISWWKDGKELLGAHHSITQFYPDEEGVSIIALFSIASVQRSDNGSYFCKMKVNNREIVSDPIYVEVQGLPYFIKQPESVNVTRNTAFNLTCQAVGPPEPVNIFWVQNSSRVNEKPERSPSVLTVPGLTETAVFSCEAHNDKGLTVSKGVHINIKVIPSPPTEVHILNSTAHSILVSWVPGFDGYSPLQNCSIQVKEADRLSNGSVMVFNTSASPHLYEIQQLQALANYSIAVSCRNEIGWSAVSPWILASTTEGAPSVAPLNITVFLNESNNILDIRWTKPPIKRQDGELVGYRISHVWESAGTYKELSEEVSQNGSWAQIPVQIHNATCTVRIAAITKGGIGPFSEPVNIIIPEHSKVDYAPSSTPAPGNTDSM
Description: Plates were washed three times with PBS 0.1% Tween and blocked with 3% non-fat dry skim milk in PBS for 2 h.
During the saturation step, dilutions of the antigen hAxl (RnD Systems, 154-AL-100), hTyro3 (RnD Systems, 859-DK-100) or mMER (RnD Systems, 591-MR-100)] were prepared at 50 nM as the highest concentration, and serially diluted 1:1 to 0.098 nM in PBS. […] Then, the saturated plate was washed three times with PBS 0.1% Tween and the antigen-antibody mixture was added to the wells in duplicate and incubated for 1 h at room temperature. The plate was then washed three times with PBS 0.1% Tween and incubated with anti-human Alkaline Phosphatase antibody (Sigma, SAB 3701248) at a dilution of 1:3000 in PBS for 1 h at room temperature. After washing three times with PBS 0.1% Tween, 100 uL of Alkaline Phosphatase Yellow (pNPP) liquid substrate system (Sigma, P7998) was added in each well and incubated for 70 min at room temperature. Plates were read at 405 nm and at 570 nm, to correct plate inconsistencies, using Glomax Discover System from Promega The absorbance was plotted as a function of antigen concentration and the Kd was calculated using GraphPad Prism 7.0c.

B1: z10 antibody (antibody, human IgG1, kappa, V domains shown)
VH: QVQLVQSGAEVKKPGASVKVSCKASGYTFTNYGMNWVRQAPGQGLEWMGWINTYTGEPTYADDFKGRVTFTTDTSTSTAYMELRSLRSDDMAVYYCARKSTVVSRYFDVWGQGTTVTVSS
VL: DIQMTQSPSFLSASVGDRVTITCKASQDVGDAVTWYQQKPGKAPKLLIYWASTRHTGVPDRFSGSGSGTDFTLTISSLQPEDFATYYCQQYRSYPLTFGQGTKLEIKR
notes: also called MERTK (z10) antibody
EC50 [1]: 6.7 nM | binding result [2]: no binding (tested: 50 nM)
